Measurements as given in patent publication US8586706B2, “Peptide vaccine using mimic molecules of amyloid β peptide” (Kagoshima University, priority 2007, dated 2013).
No end group written: not given here. *: point of attachment. Biotin = O=C1N[C@H]2[C@H](CS[C@H]2CCCCC(=O)*)N1

Columns and labels:
B6 scFv = assay: ELISA: binding of B6 scFv to plate-coated synthesized TAT fusion peptide; parameters: species or system human; conditions: ELISA plate coated with peptide 200 ng/well; B6 scFv at various concentrations; FIG. 7
Sequence of B6 scFv (as listed by the source): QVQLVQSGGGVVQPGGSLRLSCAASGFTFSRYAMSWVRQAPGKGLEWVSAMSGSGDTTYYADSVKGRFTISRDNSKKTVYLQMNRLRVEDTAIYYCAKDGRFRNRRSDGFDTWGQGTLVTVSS
Sequence of B6 scFv (as listed by the source): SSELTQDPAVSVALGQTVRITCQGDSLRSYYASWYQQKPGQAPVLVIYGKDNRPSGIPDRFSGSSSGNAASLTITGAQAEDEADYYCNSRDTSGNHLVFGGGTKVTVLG
Experimental: (5) The fusion peptide of TAT and B6-L1 was recognized by B6 scFv (FIG. 7). An ELISA plate was coated with the synthesized peptide TAT-B6-L1 or B6-L1-TAT under conditions of 200 ng/well. After addition of B6 scFv at various concentrations, binding activity thereof was inspected. A control peptide used was an unrelated peptide (GSGGGSCGYWRSEWGLCG)(SEQ ID NO: 32).

Aβ1-42 peptide = biological target: T1, Aβ1-42 peptide (Homo sapiens, UniProt P05067); assay: Experiment of inhibition of amyloid β fibrillogenesis (thioflavine T fluorescence); assay type: biochemical; conditions: peptide 1.65, 16.5, 33 nM; Aβ1-42 40 μM, phosphate buffer pH 7.0; 0, 6, 24 hours; FIG. 8
T1 construct: Aβ1-42 was dissolved at a concentration of 40 μM in 20 mM phosphate buffer
T1 sequence (P05067 672-713 limits assumed): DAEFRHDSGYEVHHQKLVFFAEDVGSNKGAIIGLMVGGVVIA
Experimental: The synthesized peptide (TAT-B6-L1, B6-L1-TAT, TAT-B7-C15, or TAT-B7-S15) was added at various concentrations (1.65 nM, 16.5 nM, and 33 nM) to the Aβ1-42 peptide diluted to 40 μM using 20 mM phosphate buffer (pH 7.0). The sample (10 μl) was recovered 0, 6, and 24 hours thereafter, 90 μl of 11 μM thioflavine T (Sigma)/phosphate buffer was added, and fluorescence intensity at 482 nm generated by the excitation light at 450 nm was measured using a multilabel plate counter, Wallac 1420 ARVO sx (Perkin-Elmer; Wellesley, Mass.).
Results of measuring activity of inhibiting Aβ1-42 fibrillogenesis by a fusion peptide of TAT and B6-L1, B7-C15, or B7-S15 are shown in FIG. 8. The experiment of inhibition of fibrillogenesis was conducted according to the procedures described in the experiment of inhibition of fibrillogenesis above.

[1] = biological target: T2, Aβ oligomers and Aβ fibers (Homo sapiens, UniProt P05067); assay: Experiment of precipitation of Aβ conformers by biotinylated peptide with streptavidin-magnet beads, Western blot; assay type: binding; conditions: biotinylated peptide added 1.5 hours after dissolution of Aβ1-42, FIG. 9
T2 construct: Aβ1-42 was dissolved at a concentration of 40 μM in 20 mM phosphate buffer
T2 sequence (P05067 672-713 limits assumed): as above
Experimental: Aβ1-42 was dissolved at a concentration of 40 μM in 20 mM phosphate buffer (pH 7.0). The TAT-B6-L1 or TAT-B7-C15 peptide adjusted to 40 μM was added 1.5 hours thereafter at a ratio of 1:1 by liquid volume, and the reaction was allowed to proceed at 37° C. for 1 hour (final concentration: Aβ (20 μM)/synthesized peptide (20 μM)). After the reaction, an aliquot thereof was sampled as a sample before immunoprecipitation (“Before precipitation”), and the remaining sample was reacted with M-280 streptavidin-magnet beads (Dynal Biotech, Oslo, Norway) adjusted to 20 μg/μl on ice for 1 hour at a ratio of 1:1 by liquid volume (final concentration: Aβ (10 μM)/synthesized peptide (10 μM)/beads (10 μg/μl)). After the reaction, the beads were precipitated using a magnet to obtain “Supernatant.” To the precipitated beads, PBS was added in a liquid volume equal to that of the recovered supernatant to obtain a “Precipitate.” Each obtained sample was electrophoresed and subjected to Western blot analysis using anti-Aβ antibodies.
Aβ1-42 was dissolved at a concentration of 40 μM in 20 mM phosphate buffer (pH 7.0). The biotinylated TAT-B6-L1 or TAT-B7-C15 peptide was added thereto 1.5 hours thereafter, and the conjugates were precipitated using streptavidin-magnet beads.

Question: Which results are given for “B6-L1-TAT: B6-L1 sequence having a TAT sequence fused at the carboxyl terminus, SEQ ID NO: 25 (Biotin-GMLDIFAPIRHVYGRKKRRQRRR)”?
Answer: binding activity of B6 scFv to coated peptide (B6 scFv): Binding reaction dependent on the amount of B6 scFv was observed; activity of inhibiting Aβ1-42 fibrillogenesis (Aβ1-42 peptide): demonstrated to have the activity of inhibiting fibrillogenesis

Question: What does the source list for “TAT-B7-C15: B7-C15 sequence (glycine added to carboxyl terminus) having a TAT sequence fused at the amino terminus, SEQ ID NO: 26 (Biotin-YGRKKRRQRRRCYGTKPWMCG; cysteine pairing not given here)”?
Answer: activity of inhibiting Aβ1-42 fibrillogenesis (Aβ1-42 peptide): demonstrated to have the activity of inhibiting fibrillogenesis; precipitation of Aβ oligomers or Aβ fibers by the peptide [1]: such Aβ oligomers or Aβ fibers were observed in the precipitate

Question: What does the source list for “GSGGGSCGYWRSEWGLCG (Designed peptide based on the sequence unrelated to B6 scFv) [control peptide, reference compound]”?
Answer: activity of inhibiting Aβ1-42 fibrillogenesis (Aβ1-42 peptide): no inhibiting activity; precipitation of Aβ oligomers or Aβ fibers by the peptide [1]: No precipitation reaction was observed

Question: “TAT-B7-S15: B7-S15 sequence having a TAT sequence fused at the amino terminus, SEQ ID NO: 27 (Biotin-YGRKKRRQRRRSYGTKPWMSG)” was tested. Which “activity of inhibiting Aβ1-42 fibrillogenesis” value (Aβ1-42 peptide) did it give?
Answer: Its value is “demonstrated to have the activity of inhibiting fibrillogenesis”.

Question: With “TAT-B6-L1: B6-L1 sequence having a TAT sequence fused at the amino terminus, SEQ ID NO: 24 (Biotin-YGRKKRRQRRRGMLDIFAPIRHV)” as the substance, how does the “binding activity of B6 scFv to coated peptide” value (B6 scFv) read?
Answer: The value was “Binding reaction dependent on the amount of B6 scFv was observed”.

Question: And the “activity of inhibiting Aβ1-42 fibrillogenesis” value (Aβ1-42 peptide)?
Answer: The value was “demonstrated to have the activity of inhibiting fibrillogenesis”.

Question: And the “precipitation of Aβ oligomers or Aβ fibers by the peptide” value [1]?
Answer: Its value is “such Aβ oligomers or Aβ fibers were observed in the precipitate”.
